Substitutions are numbered along the chain they refer to.
T1: Full-length human CD96 on CHO-S cells (human, UniProt P40200 22-585)
T1 construct: also called CD96-CHOs; hCD96-CHOs
T1 sequence: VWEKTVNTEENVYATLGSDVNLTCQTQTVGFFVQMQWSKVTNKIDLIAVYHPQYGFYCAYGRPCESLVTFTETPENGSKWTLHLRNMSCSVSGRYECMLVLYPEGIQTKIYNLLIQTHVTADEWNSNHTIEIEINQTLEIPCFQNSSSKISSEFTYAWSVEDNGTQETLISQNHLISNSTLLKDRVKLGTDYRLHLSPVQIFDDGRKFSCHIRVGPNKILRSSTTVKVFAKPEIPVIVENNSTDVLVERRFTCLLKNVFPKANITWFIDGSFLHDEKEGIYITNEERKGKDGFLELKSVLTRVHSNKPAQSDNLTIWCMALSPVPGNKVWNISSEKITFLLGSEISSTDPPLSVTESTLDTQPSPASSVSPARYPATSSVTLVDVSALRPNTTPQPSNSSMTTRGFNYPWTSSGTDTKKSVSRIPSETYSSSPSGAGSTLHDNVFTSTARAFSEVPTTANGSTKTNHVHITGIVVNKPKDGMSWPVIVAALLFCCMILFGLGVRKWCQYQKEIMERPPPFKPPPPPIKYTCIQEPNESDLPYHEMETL

T2: CD96 extracellular region with His tag (CD96-His) (human, UniProt P40200 22-519)
T2 construct: also called CD96-ECD-His; Bio-CD96-His (biotin-labelled form)
T2 sequence: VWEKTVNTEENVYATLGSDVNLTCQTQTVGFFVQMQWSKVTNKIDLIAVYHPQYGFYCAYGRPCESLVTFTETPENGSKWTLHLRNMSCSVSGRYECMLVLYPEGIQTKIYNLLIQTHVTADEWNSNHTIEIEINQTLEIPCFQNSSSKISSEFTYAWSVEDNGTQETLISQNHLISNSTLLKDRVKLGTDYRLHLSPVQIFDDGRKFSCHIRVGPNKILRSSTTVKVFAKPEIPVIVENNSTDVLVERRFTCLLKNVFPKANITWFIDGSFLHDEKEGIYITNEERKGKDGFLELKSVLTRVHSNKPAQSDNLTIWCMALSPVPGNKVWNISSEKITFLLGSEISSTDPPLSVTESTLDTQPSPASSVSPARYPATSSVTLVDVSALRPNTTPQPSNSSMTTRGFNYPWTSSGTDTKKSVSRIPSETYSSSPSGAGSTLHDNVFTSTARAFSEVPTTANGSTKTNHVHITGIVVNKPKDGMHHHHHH

B1: h1718-012 (antibody, V domains shown)
VH: EVQLVQSGAEVKKPGASVKVSCKASGYTITDYNMNWVRQAPGQRLEWIGVINPSYGITDYNQNFKDRVTITVDTSASTAYMELSSLRSEDTAVYYCAIQLRLPGYFDVWGQGTTVTVSS
VL: DIQMTQSPSSLSASVGDRVTITCKASQDINQYLNWFQQKPGKAPKTLIYRANRLVDGVPSRFSGSGSGQDYTLTISSLQPEDFATYYCLKYDEFPYTFGGGTKVEIK
notes: Only variable regions are tied to this name
B2: h1721-003 (antibody, V domains shown)
VH: EVTLKESGPVLVKPTETLTLTCTVSGFSLSSYGVNWIRQPPGKALEWLGVIWGDGSTNYHSALISRLTISKDTSKSQVVLTLTNMDPVDTATYYCAKNYFYGSRYGYAMDSWGQGTTVTVSS
VL: DIQMTQSPSSLSASVGDRVTITCRASENIYSSLAWYQQKPGKAPKLLIYNAKTLIEGVPSRFSGSGSGTDFTLTISSLQPEDFATYYCQHHYGTPYTFGGGTKVEIK
notes: Only variable regions are tied to this name; also called M721-003
B3: ch1720 (antibody, human IgG4 S228P, kappa, V domains shown)
VH: EFQLQQSGPELVKPGASVKISCKASAYSLTDYNMNWVKQSNGKSLEWIGVINPSYGISSYNQKFKGKATLTVDQSSSTAYMHLNSLTSEDSAVYYCARQLRLPGYFDVWGTGTTVTVSS
VL: DIKMTQSPSSKNASLGERVTITCKASQDINSYLNWFQQKPGKSPKTLIYRASRLVDGVPSRFSGSGSGQDYSLTISSLEYEDMGIYYCLKYDEFPYTFGGGTKLEIKR
notes: also called chimeric antibody corresponding to m1720
B4: h1722-010 (antibody, V domains shown)
VH: EVQLVQSGAEVKKPGSSVKVSCKASGGTFSDYWMHWVRQAPGQGLEWIGMLHPNSGTTSFNEKFKIRVTITADKSTSTAYMELSSLRSEDTAVYYCASDYSGPFAYWGQGTLVTVSS
VL: DIQLTQSPSSLSASVGDRVTITCSASSSVNYIHWYQQKPGKAPKRWIFDTSKLASGVPSRFSGSGSGTDYTLTISSLQPEDFATYYCQQWRSNPLTFGQGTKLEIK
notes: Only variable regions are tied to this name; also called M722-010
B5: h1722-006 (antibody, V domains shown)
VH: B4 VH
VL: B4 VL with L4M, F48Y, Y70F
notes: as for B1
B6: h1722-017 (antibody, V domains shown)
VH: B4 VH with N54K
VL: B4 VL
B7: h1722-018 (antibody, V domains shown)
VH: B4 VH with N54Q
VL: B4 VL
B8: ch1718 (antibody, human IgG4 S228P, kappa, V domains shown)
VH: B3 VH with L29I, S58T, S59D, K63N, G66D, H82Q, R98I, T116I
VL: B3 VL with K11M, N12Y, S31N, S52N, L104V
notes: also called chimeric antibody corresponding to m1718
B9: ch1719 (antibody, human IgG4 S228P, kappa, V domains shown)
VH: QVQLKESGPGLVAPSQSLSITCTVSGFSLISYGVSWVRQPPGKGLEWLGVIWGDGNTNYHSVLISRLSIRKDDSKSQVFLKLNSLQTDDTATYYCAKNNYYGSRYGYPMDYWGQGTSVTVSS
VL: DIVMTQSHKFMSTSVGDRVSITCKATQDVGTAVAWYQQKPGHSPKLLIYWASTRHTGVPERFTGSGSGTDFTLTIDNVQSEDLADYFCQQYGSSVLTFGAGTKVELRR
notes: also called chimeric antibody corresponding to m1719
B10: ch1721 (antibody, human IgG4 S228P, kappa, V domains shown)
VH: B9 VH with S35N, N56S, V62A, R70S, K81N, N99Y, Y100F, P108A, Y111S, T116I
VL: DIQMTQSPASLSAAVGETVTITCRASENIYSSLAWYQQKQGKSPQLLVYNAKTLIETVASRFSGSGSGTQYSLKINSLQPEDFGSFYCQHHYGTPYTFGGGTKLEIKR
notes: also called chimeric antibody corresponding to m1721
B11: ch1722 (antibody, human IgG4 S228P, kappa, V domains shown)
VH: QVQLQQPGAELVKPGTSVKLSCKASGNTFIDYWMHWVKQRPGQGLEWIGMLHPNSGTTSFNEKFKIKTTLTIDKSSSTAYMQLSSLTSEDSAIYYCASDYSGPFAYWGQGTLVTVSA
VL: QIVLTQSPGIMSAFPGEKVTMTCSASSSVNYIHWYQQKSGTSPKRWIFDTSKLASGVPARFSGSGSGTSYSLTISSMEAEDAATYYCQQWRSNPLTFGAGTKLELKR
notes: also called chi722; chimeric antibody corresponding to m1722
B12: h1719-010 (antibody, V domains shown)
VH: EVTLKESGPVLVKPTETLTLTCTVSGFSLSSYGVSWVRQPPGKGLEWLGVIWGDGNTNYHSVLISRLTISKDTSKSQVVLTLTNMDPVDTATYYCAKQNYYGSRYGYPIDYWGQGTTVTVSS
VL: DIQMTQSPSSVSASVGDRVTITCKATQDVGTAVAWYQQKPGKAPKLLIYWASTRHTGVPSRFSGSGSGTDFTLTISSLQPEDFATYYCQQYGSSVLTFGGGTKVEIK
notes: as for B1

Target: T1, Full-length human CD96 on CHO-S cells
Test: cell ELISA, fixed CD96-overexpressing CHO-S cells
Protocol: The binding capacity of the anti-CD96 antibody was tested by binding experiments of the antibody to human CD96 protein overexpressing CHO-S cells. The full-length CD96 plasmid was transfected into CHO-S cells by electrotransfection, and cells were then screened for two weeks under pressure for the detection of the expression of CD96. After the over-expressing cells were fixed at the bottom of the 96-well plate, the density of the signal after adding the antibody was used to judge the binding activity of the antibody to CD96 overexpressing CHO-S cells. The specific experimental method is as follows:
The cells were seeded at a density of 9×10⁴/100 μL/well in a 96-well plate and cultured overnight. After aspirating the supernatant, the plate was washed once with PBS, subsequently, 100 μl/well immunostaining fixation solution (Biyuntian, P0098) was added and fixed for one hour at room temperature, and the plate was washed three times with PBS. Once the liquid was discarded, 250 μl/well of 5% skim milk (BD, 232100) blocking solution diluted with PBS was added, and the plate was blocked in an incubator at 37° C. for 2.5 hours. After blocking, the blocking solution was discarded, the plate was washed 4 times with PBST buffer (pH 7.4 PBS containing 0.05% tween-20), followed by diluting 50 μl/well of different concentrations of the antibodies (hybridoma purification antibody or humanized antibody) to be tested the plate was incubated in an incubator at 37° C. for 2 hours. After incubation, the plate was wash 4 times with PBST. […] After washing the plate 4 times with PBST, 50 μl/well of TMB chromogenic substrate (KPL, Cat No. 52-00-03) was added, the plate was incubated at room temperature for 10-25 min, followed by adding 50 μl/well of 1M H₂SO₄ to stop the reaction. The absorption value was read at 450 nm with a NOVOStar microplate reader, and the EC50 value of the CD96 antibodies to CD96 overexpressing CHO-S cells was calculated (see FIG. 1 and Table 15).

Binder	EC50 [nM]
B1	0.031
B2	0.074
B3	0.036
B4	0.047
B5	0.043
B6	0.053
B7	0.044
B8	0.026
B9	0.012
B10	0.036
B11	0.043

Target: T2, CD96 extracellular region with His tag …
Test: SPR (Biacore), antibody captured, CD96-ECD-His as mobile phase
From the text: Protein A biosensor chip was used to capture antibodies to be tested, then CD96 antigen was flowed on the surface of the chip, and real time reaction signal was detected by Biacore to obtain the binding and dissociation curve. After the dissociation of each experimental cycle was completed, the biosensor chip was washed and regenerated with a glycine-hydrochloric acid regeneration solution (pH 1.5).

Binder	Kd [nM]
B12	465
B1	3.98
B2	1.61
B3	1.35
B4	0.86
B5	1.19
B8	3.32
B9	9.74
B10	2.28
B11	1.05

Target: T2, CD96 extracellular region with His tag …
Test: ELISA, CD96-His coated
Protocol: The binding capacity of the anti-CD96 antibody was tested by ELISA to determine the binding of the antibody to human CD96 protein. The His-tagged CD96 fusion protein was used to coat the microtiter plate, and the intensity of the signal after adding with the antibody was used for evaluating the binding activity of the antibody and CD96. The specific experimental method is as follows:
CD96-His with the sequence of SEQ ID NO: 4 prepared in Embodiment 1 was diluted to a concentration of 2 μg/ml with PBS buffer (Shanghai Yuanpei Biotechnology Co., Ltd. Cat No. B320), pH 7.4, added to a 96-well microtiter plate (Corning, Cat No. CLS3590-100EA) at a volume of 50 μl/well, and placed in an incubator at 37° C. for 2 hours. After discarding the liquid, 250 μl/well of 5% skim milk (BD, Cat No. 232100) blocking solution diluted with PBS was added, and the plate was incubated at 37° C. for 2.5 hours or at 4° C. overnight (16-18 hours) for blocking. After blocking, the blocking solution was discarded, and the plate was washed 4 times with PBST buffer (pH 7.4 PBS containing 0.05% tween-20). 50 μl/well of different concentrations of the antibodies to be tested (hybridoma purification antibody or humanized antibody) diluted with sample dilution was added, and the plate was incubated in an incubator at 37° C. for 1 hour. […] After washing the plate 4 times with PBST, 50 μl/well of TMB chromogenic substrate (KPL, Cat No. 52-00-03) was added, and the plate was incubated at room temperature for 5-15 minutes, followed by adding 50 μl/well of 1M H₂SO₄ to stop the reaction. The absorption value was read at 450 nm with a NOVOStar microplate reader, and the EC50 value of the binding of CD96 antibody to human CD96 was calculated (see Table 13).

Binder	EC50 [nM]
B1	0.095
B2	0.07
B3	0.074
B4	0.073
B5	0.077
B6	0.113
B7	0.091
B8	0.084
B9	0.065
B10	0.075
B11	0.094

Source: patent publication US20200347130A1 (JIANGSU HENGRUI MEDICINE, published 2020)
